Target: H. polygyrus Alarmin Release Inhibitor (HpARI), recombinant mature 6-His and Myc-tagged protein (Heligmosomoides polygyrus)
Assay: SPR; BIAcore T200; HpARI captured via its 6-His tag on a Ni2+-NTA chip to 400 RU; cytokine injected (mIL-33 6.2-167 nM, hIL-33 0.062-1.67 μM); 25°C; 10 mM NaH2PO4 pH 7.5, 150 mM NaCl, 50 μM EDTA, 0.05% surfactant P20; single kinetic titration, global 1:1 fit

Chain of H. polygyrus Alarmin Release Inhibitor (HpARI), recombinant mature 6-His and Myc-tagged protein (Heligmosomoides polygyrus) (A0A3P7XL18 63-297): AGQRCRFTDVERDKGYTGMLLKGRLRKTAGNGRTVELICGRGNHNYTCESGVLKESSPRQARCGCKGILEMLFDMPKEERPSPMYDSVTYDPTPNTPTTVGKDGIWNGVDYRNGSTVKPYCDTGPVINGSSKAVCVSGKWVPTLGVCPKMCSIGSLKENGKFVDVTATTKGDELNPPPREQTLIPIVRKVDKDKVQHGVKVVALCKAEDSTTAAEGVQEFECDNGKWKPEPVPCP

B1: recombinant human IL-33, untreated (reduced, active form) (ligand)
chain: MKPKMKYSTNKISTAKWKNTASKALCFKLGKSQQKAKEVCPMYFMKLRSGLMIKKEACYFRRETTKRPSLKTGRKHKRHLVLAACQQQSTVECFAFGISGVQKYTRALHDSSITGISPITEYLASLSTYNDQSITFALEDESYEIYVEDLKKDEKKDKVLLSYYESQHPSNESGDGVDGKMLMVTLSPTKDFWLHANNKEHSVELHKCEKPLPDQAFFVLHNMHSNCVSFECKTDPGVFIGVKDNHLALIKVDSSENLCTENILFKLSET
Work on B1 yielded a Kd of 260 nM and a stoichiometry N of 1.

Reference: article PMC5655542
